Literature values as cited in publication PMC5179943.

Molecular target: LRP2/Megalin (Homo sapiens) (UniProt P98164)
Assay: solid phase binding assay

Sequence of UniProt P98164 (P98164 26-4423): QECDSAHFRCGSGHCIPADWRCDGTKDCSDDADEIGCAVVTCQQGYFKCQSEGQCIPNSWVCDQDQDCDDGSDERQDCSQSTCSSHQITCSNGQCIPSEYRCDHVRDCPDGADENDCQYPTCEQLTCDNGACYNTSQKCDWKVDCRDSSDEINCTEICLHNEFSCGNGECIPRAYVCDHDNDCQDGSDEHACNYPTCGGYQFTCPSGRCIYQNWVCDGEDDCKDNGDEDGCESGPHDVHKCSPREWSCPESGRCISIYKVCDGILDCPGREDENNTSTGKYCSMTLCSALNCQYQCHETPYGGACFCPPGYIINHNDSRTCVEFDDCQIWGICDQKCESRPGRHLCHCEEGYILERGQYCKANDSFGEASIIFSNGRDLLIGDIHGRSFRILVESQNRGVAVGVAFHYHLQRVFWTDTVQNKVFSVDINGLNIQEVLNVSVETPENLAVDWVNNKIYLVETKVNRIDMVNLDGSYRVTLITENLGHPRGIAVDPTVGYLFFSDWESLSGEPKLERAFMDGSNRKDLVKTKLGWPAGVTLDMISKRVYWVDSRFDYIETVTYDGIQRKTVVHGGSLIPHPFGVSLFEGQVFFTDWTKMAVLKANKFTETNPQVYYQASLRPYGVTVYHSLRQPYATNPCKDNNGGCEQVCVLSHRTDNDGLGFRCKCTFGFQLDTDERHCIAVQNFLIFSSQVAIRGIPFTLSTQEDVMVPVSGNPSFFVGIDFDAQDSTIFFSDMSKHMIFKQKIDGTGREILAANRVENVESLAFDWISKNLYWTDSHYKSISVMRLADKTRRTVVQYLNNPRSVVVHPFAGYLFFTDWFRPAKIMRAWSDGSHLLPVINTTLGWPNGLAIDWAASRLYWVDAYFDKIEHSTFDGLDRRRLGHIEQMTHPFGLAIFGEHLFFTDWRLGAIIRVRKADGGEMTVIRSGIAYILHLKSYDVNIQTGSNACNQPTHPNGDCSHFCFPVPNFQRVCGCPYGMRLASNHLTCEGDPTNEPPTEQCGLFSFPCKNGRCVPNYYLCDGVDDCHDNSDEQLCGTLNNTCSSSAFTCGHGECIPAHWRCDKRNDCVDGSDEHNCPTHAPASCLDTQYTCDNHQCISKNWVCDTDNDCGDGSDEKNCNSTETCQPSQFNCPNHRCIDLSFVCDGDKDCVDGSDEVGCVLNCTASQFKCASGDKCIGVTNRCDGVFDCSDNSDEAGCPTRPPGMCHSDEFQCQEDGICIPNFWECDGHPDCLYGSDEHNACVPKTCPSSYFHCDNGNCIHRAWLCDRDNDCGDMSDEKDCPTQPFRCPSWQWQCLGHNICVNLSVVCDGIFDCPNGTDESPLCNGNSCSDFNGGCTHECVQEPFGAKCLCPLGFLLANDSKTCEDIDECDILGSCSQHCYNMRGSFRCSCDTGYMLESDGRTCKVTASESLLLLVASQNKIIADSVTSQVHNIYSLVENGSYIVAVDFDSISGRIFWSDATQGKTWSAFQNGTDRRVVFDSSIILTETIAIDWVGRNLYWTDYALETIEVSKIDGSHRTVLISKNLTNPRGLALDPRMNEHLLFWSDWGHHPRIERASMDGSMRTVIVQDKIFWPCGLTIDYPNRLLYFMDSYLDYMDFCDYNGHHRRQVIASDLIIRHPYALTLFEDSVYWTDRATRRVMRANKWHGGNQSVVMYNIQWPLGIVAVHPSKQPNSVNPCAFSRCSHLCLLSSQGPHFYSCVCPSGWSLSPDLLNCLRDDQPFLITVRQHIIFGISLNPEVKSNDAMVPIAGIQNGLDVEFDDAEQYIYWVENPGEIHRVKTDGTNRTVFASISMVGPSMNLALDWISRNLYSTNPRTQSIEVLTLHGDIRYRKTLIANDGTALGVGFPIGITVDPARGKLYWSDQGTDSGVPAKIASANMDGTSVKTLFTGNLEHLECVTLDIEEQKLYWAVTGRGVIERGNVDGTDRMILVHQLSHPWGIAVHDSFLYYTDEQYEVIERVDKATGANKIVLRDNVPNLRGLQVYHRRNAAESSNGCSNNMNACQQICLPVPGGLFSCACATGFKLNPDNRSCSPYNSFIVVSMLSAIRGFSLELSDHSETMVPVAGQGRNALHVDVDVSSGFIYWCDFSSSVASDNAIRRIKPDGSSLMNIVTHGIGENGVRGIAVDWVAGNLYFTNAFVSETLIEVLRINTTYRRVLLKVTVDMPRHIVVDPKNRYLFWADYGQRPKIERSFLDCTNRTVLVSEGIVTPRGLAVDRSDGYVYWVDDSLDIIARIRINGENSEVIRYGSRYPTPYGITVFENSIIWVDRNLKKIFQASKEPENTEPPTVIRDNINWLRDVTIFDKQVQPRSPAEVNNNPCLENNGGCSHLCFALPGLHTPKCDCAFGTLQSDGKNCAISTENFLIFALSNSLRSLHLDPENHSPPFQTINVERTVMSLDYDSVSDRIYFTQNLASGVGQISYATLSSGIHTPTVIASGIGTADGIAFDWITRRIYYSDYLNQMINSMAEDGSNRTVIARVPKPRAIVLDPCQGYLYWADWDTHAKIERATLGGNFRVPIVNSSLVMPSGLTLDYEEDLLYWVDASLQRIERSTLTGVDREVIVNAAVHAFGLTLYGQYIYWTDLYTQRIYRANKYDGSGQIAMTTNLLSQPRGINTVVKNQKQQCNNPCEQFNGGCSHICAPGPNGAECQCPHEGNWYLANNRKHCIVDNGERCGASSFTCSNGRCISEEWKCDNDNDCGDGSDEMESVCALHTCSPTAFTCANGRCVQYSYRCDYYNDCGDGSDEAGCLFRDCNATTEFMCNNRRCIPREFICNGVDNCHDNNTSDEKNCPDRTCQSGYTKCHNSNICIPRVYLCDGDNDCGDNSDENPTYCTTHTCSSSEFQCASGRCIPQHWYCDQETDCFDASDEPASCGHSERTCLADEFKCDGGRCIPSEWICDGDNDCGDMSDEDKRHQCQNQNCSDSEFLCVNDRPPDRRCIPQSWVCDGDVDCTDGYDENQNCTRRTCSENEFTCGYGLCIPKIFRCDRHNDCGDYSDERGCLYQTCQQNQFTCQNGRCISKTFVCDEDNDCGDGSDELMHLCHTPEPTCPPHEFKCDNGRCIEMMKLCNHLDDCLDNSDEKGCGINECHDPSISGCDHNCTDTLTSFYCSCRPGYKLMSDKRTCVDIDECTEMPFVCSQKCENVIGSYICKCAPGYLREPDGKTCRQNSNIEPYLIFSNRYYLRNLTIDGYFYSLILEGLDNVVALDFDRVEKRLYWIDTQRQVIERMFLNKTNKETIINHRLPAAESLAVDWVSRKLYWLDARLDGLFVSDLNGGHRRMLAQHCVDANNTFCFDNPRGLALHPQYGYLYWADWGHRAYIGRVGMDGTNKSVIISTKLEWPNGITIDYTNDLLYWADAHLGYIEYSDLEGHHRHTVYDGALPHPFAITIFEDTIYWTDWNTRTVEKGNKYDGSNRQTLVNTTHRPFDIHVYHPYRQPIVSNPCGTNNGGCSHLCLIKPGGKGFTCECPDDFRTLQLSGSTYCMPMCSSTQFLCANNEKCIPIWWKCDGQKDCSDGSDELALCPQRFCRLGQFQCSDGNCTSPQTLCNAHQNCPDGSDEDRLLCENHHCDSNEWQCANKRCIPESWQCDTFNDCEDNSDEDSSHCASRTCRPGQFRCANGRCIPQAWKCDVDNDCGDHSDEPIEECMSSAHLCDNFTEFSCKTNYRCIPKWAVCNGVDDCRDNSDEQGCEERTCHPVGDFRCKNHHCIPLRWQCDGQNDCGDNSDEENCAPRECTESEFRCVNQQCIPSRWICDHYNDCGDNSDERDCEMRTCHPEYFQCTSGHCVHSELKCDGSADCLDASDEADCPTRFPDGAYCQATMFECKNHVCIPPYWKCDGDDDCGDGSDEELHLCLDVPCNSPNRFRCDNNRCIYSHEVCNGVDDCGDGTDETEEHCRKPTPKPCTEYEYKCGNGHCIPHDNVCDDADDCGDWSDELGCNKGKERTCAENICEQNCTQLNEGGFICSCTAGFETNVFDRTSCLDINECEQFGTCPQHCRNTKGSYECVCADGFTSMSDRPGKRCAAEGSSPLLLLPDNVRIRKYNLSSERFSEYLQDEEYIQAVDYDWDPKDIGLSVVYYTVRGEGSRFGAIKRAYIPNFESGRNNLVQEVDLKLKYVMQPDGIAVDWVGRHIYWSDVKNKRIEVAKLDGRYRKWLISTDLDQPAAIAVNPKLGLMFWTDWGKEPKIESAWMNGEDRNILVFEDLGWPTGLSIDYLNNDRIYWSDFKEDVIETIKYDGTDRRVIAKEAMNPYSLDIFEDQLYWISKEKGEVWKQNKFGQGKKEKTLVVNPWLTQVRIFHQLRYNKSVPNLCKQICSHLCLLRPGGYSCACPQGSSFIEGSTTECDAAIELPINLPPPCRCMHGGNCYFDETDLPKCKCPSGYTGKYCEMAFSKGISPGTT

In the case of Clusterin (from UniProt P10909), the Kd is listed as 14.2 nM.
